Results: the RNAGym collection of RNA variant scans (doi:10.1073/pnas.2313332121)
Variants at the floor of the assay were thinned out.

B1: TPR 5TU (parent)
chain: GGAUCUUCUCGAUCUAACAAAAAAGACAAAUCUGCCACAAAGCUUGAGAGCAUCUUCGGAUGCAGAGGCGGCAGCCUUCGGUGGCGCGAUAGCGCCAACGUUCUCAACUAUGACACGCAAAACGCGUGCUCCGUUGAAUGGAGUUUAUCAUG

Variants of: B1
Test: polymerase ribozyme fitness, log enrichment relative to wild type (log ratio); higher = more active; in vitro selection for triplet polymerase activity
Outline: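 Only genotypes with ≥10 input reads and ≥1 read per output were kept after Illumina sequencing of input and output libraries. These libraries were PCR-built, transcribed mutants of each subunit of a heterodimeric triplet polymerase ribozyme, each put through one triplicate in vitro selection round with frozen incubation at −7 °C, gel excision of extended constructs, streptavidin-bead capture and RT-PCR. Fitness is a logarithmic ratio of genotype enrichment to wild-type enrichment, from inverse-variance-weighted replicate averages, with the logarithm in base 2.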

Variant	polymerase ribozyme fitness (log ratio)
A24U C36U A60G G80A G94C	-3.57
A73C G92U C116G U144C	≤ -4.2
A47C U61A C85G C108A	≤ -4.2
G141A G143C	-3.92
A23C C35A C87A	-4.05
G59C G124U	-0.228
A52U A107C	≤ -4.2
U7C C38U G62C	-3.44
G94A C125U	-1.67
U15C U44C U61A G70U G80A C96U	≤ -4.2
C85U U101C	-0.749
C8U U15A A41U C85A G126A	-4.06
U55A G83A C105G C118A	-3.78
A37G C85G	-3.97
U56A	-0.324
A19U A20C U109G	-2.07
A41G U53A U55A A91U C99A U148A	≤ -4.2
A3U A30U G34U G58A C87G C95U C131G	≤ -4.2
A47C A115C U144G	-0.866
C5A U6G A28U A52C G84C A110G	≤ -4.2
C51U A60G A66C U82C G94A U109A G136A A138C	≤ -4.2
A21C A47C A60G C93A	-1.98
C57A G92C G133A	-4.05
C35A G65A	-3.77

Variant	polymerase ribozyme fitness (log ratio)
A17U A24U	0.106
C96U A115U U145A	-1.79
C87A A98U	-4.12
C51G	-1.58
A16G G58A C129G	-4.19
A47U G50A C87G C105G C114U C129U	≤ -4.2
A40U C51A	-0.707
A28U U33G A89G A91G C95A A98C	≤ -4.2
A39C A49U G67A A121U	≤ -4.2
C5U C14U C38A C57A A66U G67A G84U A110G	≤ -4.2
U55A G62C G117A C131G	≤ -4.2
U56A G70C G117C	-3.79
C54U C72U U135C	-3.15
C85G U145A	-1.65
G46C C85U	-1.16
C35G C38A C69U G84U	≤ -4.2
G11A A16U A21U A60U C63A C85A G126U	≤ -4.2
A21C C54A C95U C114G G136U	≤ -4.2
C14A C105U	-0.869
A24U G65U A91C U104A A110G G140A U144G	≤ -4.2
U53A G100A	≤ -4.2
U7A A28C C57U C87G C95U C125A	≤ -4.2
A29U C57A U61A A121U	≤ -4.2
C10G A19U C32A C93U U127A	≤ -4.2

Variant	polymerase ribozyme fitness (log ratio)
A41C G86U U90A C129A U130C G140U	≤ -4.2
A12C A24G G50C C72U C87G U111C	≤ -4.2
A17U C54U G84A	-0.832
A23G U56A	-2.39
A26U U55G	-1.36
G84U G141C U144A	≤ -4.2
A26G G50C A91G G117A C125U G140A G143C	≤ -4.2
U7G A52U G140C	≤ -4.2
A16G C57A C85G A121U	-2.53
A21G A23G G58C G59A C85G C103A C108U	≤ -4.2
G80A C105U	0.692
C14G U31G G86C U102G	≤ -4.2
U56A U61G G88C G136U	≤ -4.2
C93U G133C U134A G140A	≤ -4.2
U61A U109G	-2.11
G46A A47G C72A C108U U144A	≤ -4.2
G58C A142U U146A	-1.03
A12C A22G C54A G70U G100A C116G G117A U135G	≤ -4.2
U45A A91U	-3.74
C5U C51A G117C	-2.16
C18A A20C U53C G59U C93G U148C	-4.14
A52G C105A	-0.578
C54A G83C	-3.55
A16G A26U G65U C103G A107G C114G	≤ -4.2

Variant	polymerase ribozyme fitness (log ratio)
G59C C87U U109G	-1.03
A89G G126C	0.0965
C36U C87U C93A C95G	≤ -4.2
A26C U55G G59C	-2.72
A40U A52U G126U U135G A142G	≤ -4.2
A26U G58C A60C G100A A115G	≤ -4.2
U31C A40C A41C	-0.373
A24U A26G C51U A64U A66C C69U C108A C123A	≤ -4.2
G59A C132A	-2.31
C43U C85G G88A C93G A97U C125A C132G G140C	≤ -4.2
C43U U45A G86A A115C C118G	≤ -4.2
A47C U104G	-0.804
U6G A17C A37G A52C C54U C96A A122U U134C	≤ -4.2
U33C U53G U77A G143C	≤ -4.2
U13G C27U C32G U56G C93U	≤ -4.2
C51U U55C A106G U151G	≤ -4.2
U53A U55G C85A C95U A121C	≤ -4.2
C35U U53A G92U C103U C114G A115U A122U	≤ -4.2
A28U A52C	-3.54
A60U G92U A107C	≤ -4.2
A41U A49G G58C G92A C95A C123A	≤ -4.2
A20G A24U C35U G42C C79A C85G G88U A147G G152A	≤ -4.2
C5A C93A	-1.25
A19G C27U C35A A73G U77A G80C	≤ -4.2

Variant	polymerase ribozyme fitness (log ratio)
C51U A60U	-0.791
C43G G83A	≤ -4.2
C87U A113U C116U	-1.99
C5A A17C G83A G143U	-2.68
G42U G48A U55A C118A A137G	≤ -4.2
U13C A22G U61A G83A	-3.83
G62U A73C G94C	≤ -4.2
A17C C35U G92A A122G	-2.61
C63G C125G U145C A150C	≤ -4.2
U15G A24U U145G A147C	-3.02
A28G U53A U144G	≤ -4.2
A47C U55A	0.201
C10G U55A C57A U77G C87G	≤ -4.2
C79G C87U	-3.7
A21C C85G C87U U145G	-3.2
G84A C87G A110G	≤ -4.2
A40G U55A	-2
G88C G100A	≤ -4.2
C8A G83C C85G G140C A150C	≤ -4.2
U55G G84A	-1.68
C63G C85U U145A	0.338
G59C G84U G124C	-2.97
G11U G50C A73G	≤ -4.2
U45A A73U C79A C93U A121G	≤ -4.2

Variant	polymerase ribozyme fitness (log ratio)
A21U U33G U61C G62A A66C C72A G80C C85U A107G	≤ -4.2
A91G C125A	-3.21
C87U U102C A115C	-2.7
C5G G81A A98G A121U G143C	-2.76
C118U A147C	0.751
A12G C54G G80A U144A	-3.53
A3C A19U C57G G94A G141A	-2.02
C57U A121U C129U	-0.101
C32A U55G C69G	-3.22
C36A A138U U145A A147C	-3.85
A16U C93U A106C	-3.19
G65A C69A G84A	-1.8
G84A U102C C105A A107G	≤ -4.2
C35U C76U C96A C125G A142G	-2.86
A20U A52C C93U	-3.12
G50C A66C C79G C93U C95U U139C A147U	≤ -4.2
G74A A91C A147U U148C	≤ -4.2
G140C U148G	-4.14
A19U	-0.43
U13C G62C C99A U148G	≤ -4.2
A17U U90G C103A	≤ -4.2
C85A U104A A115G	-3.42
A3G	-0.234
A41U U102C U146G	-3.93

Variant	polymerase ribozyme fitness (log ratio)
C5G C85U	-1.17
A39C C76A U101G C114U C125G U145G	-3.83
A21C G58A C93U U102G C131G	≤ -4.2
G58A G62C U82G A106G G141C	-4.01
C5G C32U U53G A73U C85U	≤ -4.2
C38G C54G C79U G117A	≤ -4.2
C85U A119G	-1.31
A20C C85A G126C	0.52
A12G U56A	-0.197
G58C C76A G86A A147U	-2.24
C35A A60U U61G A64C U82C C85A A142C	≤ -4.2
U45A A60C C79U C99U U101G G136U	≤ -4.2
A41C A52C	-1.97
A23U A47G U55A	≤ -4.2
A3G G50A	-1.39
G92A A98U U111A C123U U144A A150C	≤ -4.2
C54A G83A C99U	-3.7
C10A U102G U139G A150U U151G	≤ -4.2
U44A A66U C85A	≤ -4.2
A26C U78C	-3.76
A39U G70C G80U C87G C93U U134C	≤ -4.2
A39C G83U	-2.83
A19U A20U C85U C118U	-2.63
